Reference: the supplement of paper PMC10567573

B1: PDZK1 (parent)
chain: RETASLKLLPHQPRIVEMKKGSNG
B2: DVL3 (parent)
chain: FCADNPSELPPPMERTGGIGDSRP

Variants of: B1
Experiment: protein stability index of a GFP-peptide fusion (GPS, HEK-293T) (PSI 1-6); higher = more stable
Settings: c terminus: a fixed tail appended
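Also: lentivirally expressed fusions sorted by FACS into six bins by GFP to DsRed ratio, PSI derived from sequencing read proportions per bin multiplied by bin number.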

Variant	protein stability index
RETASLKLLVHQPRIVEMKKGSNG [P10V]	2.76
RETASLKLLSHQPRIVEMKKGSNG [P10S]	3.48
RETASLKLLGHQPRIVEMKKGSNG [P10G]	3.38
RETASLKLLYHQPRIVEMKKGSNG [P10Y]	2.99
RETASLKLLHHQPRIVEMKKGSNG [P10H]	2.54
RETASLKLLEHQPRIVEMKKGSNG [P10E]	3.14
RETASLKLLWHQPRIVEMKKGSNG [P10W]	2.82
RETASLKLLAHQPRIVEMKKGSNG [P10A]	3.5
RETASLKLLTHQPRIVEMKKGSNG [P10T]	2.98
RETASLKLLLHQPRIVEMKKGSNG [P10L]	2.88
RETASLKLLMHQPRIVEMKKGSNG [P10M]	2.89
RETASLKLLQHQPRIVEMKKGSNG [P10Q]	3.02
RETASLKLLIHQPRIVEMKKGSNG [P10I]	2.43
RETASLKLLRHQPRIVEMKKGSNG [P10R]	3.56
RETASLKLLKHQPRIVEMKKGSNG [P10K]	3.62
RETASLKLLDHQPRIVEMKKGSNG [P10D]	3.21
RETASLKLLFHQPRIVEMKKGSNG [P10F]	2.08
RETASLKLSPHQPRIVEMKKGSNG [L9S]	3.26
RETASLKLAPHQPRIVEMKKGSNG [L9A]	3.39
RETASLKLEPHQPRIVEMKKGSNG [L9E]	3.11
RETASLKLKPHQPRIVEMKKGSNG [L9K]	3.99
RETASLKLTPHQPRIVEMKKGSNG [L9T]	3.61
RETASLKLVPHQPRIVEMKKGSNG [L9V]	3.36

Variant	protein stability index
RETASLKLFPHQPRIVEMKKGSNG [L9F]	3.26
RETASLKLNPHQPRIVEMKKGSNG [L9N]	3.79
RETASLKLPPHQPRIVEMKKGSNG [L9P]	3
RETASLKLWPHQPRIVEMKKGSNG [L9W]	2.76
RETASLKLRPHQPRIVEMKKGSNG [L9R]	3.63
RETASLKLQPHQPRIVEMKKGSNG [L9Q]	3.5
RETASLKLCPHQPRIVEMKKGSNG [L9C]	3.75
RETASLKLYPHQPRIVEMKKGSNG [L9Y]	3
RETASLKLMPHQPRIVEMKKGSNG [L9M]	3.02
RETASLKLGPHQPRIVEMKKGSNG [L9G]	4.12
RETASLKLHPHQPRIVEMKKGSNG [L9H]	3.42
RETASLKLDPHQPRIVEMKKGSNG [L9D]	3.33
RETAFLKLLPHQPRIVEMKKGSNG [S5F]	1.88
RETAWLKLLPHQPRIVEMKKGSNG [S5W]	2.36
RETAHLKLLPHQPRIVEMKKGSNG [S5H]	2.98
RETATLKLLPHQPRIVEMKKGSNG [S5T]	3.39
RETALLKLLPHQPRIVEMKKGSNG [S5L]	3.73
RETAPLKLLPHQPRIVEMKKGSNG [S5P]	3
RETAGLKLLPHQPRIVEMKKGSNG [S5G]	3.26
RETADLKLLPHQPRIVEMKKGSNG [S5D]	3.77
RETAELKLLPHQPRIVEMKKGSNG [S5E]	3.61
RETARLKLLPHQPRIVEMKKGSNG [S5R]	3.38
RETAYLKLLPHQPRIVEMKKGSNG [S5Y]	2.47

Variant	protein stability index
RETACLKLLPHQPRIVEMKKGSNG [S5C]	3.2
RETAKLKLLPHQPRIVEMKKGSNG [S5K]	2.67
RETANLKLLPHQPRIVEMKKGSNG [S5N]	2.93
RETAQLKLLPHQPRIVEMKKGSNG [S5Q]	3.44
RETAILKLLPHQPRIVEMKKGSNG [S5I]	2.82
RETAVLKLLPHQPRIVEMKKGSNG [S5V]	3.32
RETMSLKLLPHQPRIVEMKKGSNG [A4M]	3.27
RETCSLKLLPHQPRIVEMKKGSNG [A4C]	3.12
RETLSLKLLPHQPRIVEMKKGSNG [A4L]	3.05
RETTSLKLLPHQPRIVEMKKGSNG [A4T]	3.32
RETGSLKLLPHQPRIVEMKKGSNG [A4G]	3.17
RETQSLKLLPHQPRIVEMKKGSNG [A4Q]	3.29
RETNSLKLLPHQPRIVEMKKGSNG [A4N]	3.81
RETWSLKLLPHQPRIVEMKKGSNG [A4W]	2.37
RETISLKLLPHQPRIVEMKKGSNG [A4I]	2.47
RETFSLKLLPHQPRIVEMKKGSNG [A4F]	2.66
RETKSLKLLPHQPRIVEMKKGSNG [A4K]	3.79
RETRSLKLLPHQPRIVEMKKGSNG [A4R]	3.88
RETDSLKLLPHQPRIVEMKKGSNG [A4D]	3.15
RETSSLKLLPHQPRIVEMKKGSNG [A4S]	3.17
RETPSLKLLPHQPRIVEMKKGSNG [A4P]	3.8
RETVSLKLLPHQPRIVEMKKGSNG [A4V]	3.21
RETESLKLLPHQPRIVEMKKGSNG [A4E]	3.43

Variant	protein stability index
RETYSLKLLPHQPRIVEMKKGSNG [A4Y]	3.19
RERASLKLLPHQPRIVEMKKGSNG [T3R]	3.28
REFASLKLLPHQPRIVEMKKGSNG [T3F]	3.08
REGASLKLLPHQPRIVEMKKGSNG [T3G]	3.27
REMASLKLLPHQPRIVEMKKGSNG [T3M]	3.14
REPASLKLLPHQPRIVEMKKGSNG [T3P]	3.75
REHASLKLLPHQPRIVEMKKGSNG [T3H]	3.31
REKASLKLLPHQPRIVEMKKGSNG [T3K]	3.53
REYASLKLLPHQPRIVEMKKGSNG [T3Y]	3.02
REAASLKLLPHQPRIVEMKKGSNG [T3A]	3.26
REDASLKLLPHQPRIVEMKKGSNG [T3D]	3.39
REVASLKLLPHQPRIVEMKKGSNG [T3V]	3.25
REIASLKLLPHQPRIVEMKKGSNG [T3I]	3.6
RESASLKLLPHQPRIVEMKKGSNG [T3S]	3.62
REEASLKLLPHQPRIVEMKKGSNG [T3E]	3.65
RECASLKLLPHQPRIVEMKKGSNG [T3C]	2.35
REQASLKLLPHQPRIVEMKKGSNG [T3Q]	3.41
REWASLKLLPHQPRIVEMKKGSNG [T3W]	2.58
RETASLKFLPHQPRIVEMKKGSNG [L8F]	3.65
RETASLKELPHQPRIVEMKKGSNG [L8E]	3.77
RETASLKKLPHQPRIVEMKKGSNG [L8K]	3.63
RETASLKALPHQPRIVEMKKGSNG [L8A]	3.56
RETASLKCLPHQPRIVEMKKGSNG [L8C]	3.38

Variant	protein stability index
RETASLKDLPHQPRIVEMKKGSNG [L8D]	3.4
RETASLKHLPHQPRIVEMKKGSNG [L8H]	2.81
RETASLKYLPHQPRIVEMKKGSNG [L8Y]	3.17
RETASLKILPHQPRIVEMKKGSNG [L8I]	3.34
RETASLKQLPHQPRIVEMKKGSNG [L8Q]	4.16
RETASLKRLPHQPRIVEMKKGSNG [L8R]	3.89
RETASLKMLPHQPRIVEMKKGSNG [L8M]	2.75
RETASLKPLPHQPRIVEMKKGSNG [L8P]	4.25
RETASLKNLPHQPRIVEMKKGSNG [L8N]	2.96
RETASLKGLPHQPRIVEMKKGSNG [L8G]	3.42
RETASLKWLPHQPRIVEMKKGSNG [L8W]	3.21
RETASLKVLPHQPRIVEMKKGSNG [L8V]	3.92
RETASLKSLPHQPRIVEMKKGSNG [L8S]	3.7
VETASLKLLPHQPRIVEMKKGSNG [R1V]	3.14
DETASLKLLPHQPRIVEMKKGSNG [R1D]	3.19
FETASLKLLPHQPRIVEMKKGSNG [R1F]	2.99
EETASLKLLPHQPRIVEMKKGSNG [R1E]	3.36
TETASLKLLPHQPRIVEMKKGSNG [R1T]	2.98
QETASLKLLPHQPRIVEMKKGSNG [R1Q]	3.4
AETASLKLLPHQPRIVEMKKGSNG [R1A]	3.58
WETASLKLLPHQPRIVEMKKGSNG [R1W]	2.09
CETASLKLLPHQPRIVEMKKGSNG [R1C]	3.34
LETASLKLLPHQPRIVEMKKGSNG [R1L]	3.65

Variant	protein stability index
SETASLKLLPHQPRIVEMKKGSNG [R1S]	3.41
HETASLKLLPHQPRIVEMKKGSNG [R1H]	3.14
METASLKLLPHQPRIVEMKKGSNG [R1M]	2.38
KETASLKLLPHQPRIVEMKKGSNG [R1K]	3.67
GETASLKLLPHQPRIVEMKKGSNG [R1G]	2.8
YETASLKLLPHQPRIVEMKKGSNG [R1Y]	3.14
NETASLKLLPHQPRIVEMKKGSNG [R1N]	3.8
PETASLKLLPHQPRIVEMKKGSNG [R1P]	3.24
RITASLKLLPHQPRIVEMKKGSNG [E2I]	2.23
RVTASLKLLPHQPRIVEMKKGSNG [E2V]	2.62
RWTASLKLLPHQPRIVEMKKGSNG [E2W]	2.36
RMTASLKLLPHQPRIVEMKKGSNG [E2M]	3.08
RNTASLKLLPHQPRIVEMKKGSNG [E2N]	3.57
RQTASLKLLPHQPRIVEMKKGSNG [E2Q]	3.73
RFTASLKLLPHQPRIVEMKKGSNG [E2F]	3.45
RSTASLKLLPHQPRIVEMKKGSNG [E2S]	3.62
RKTASLKLLPHQPRIVEMKKGSNG [E2K]	3.58
RATASLKLLPHQPRIVEMKKGSNG [E2A]	2.73
RPTASLKLLPHQPRIVEMKKGSNG [E2P]	3.65
RYTASLKLLPHQPRIVEMKKGSNG [E2Y]	2.64
RTTASLKLLPHQPRIVEMKKGSNG [E2T]	3.39
RDTASLKLLPHQPRIVEMKKGSNG [E2D]	3.4
RRTASLKLLPHQPRIVEMKKGSNG [E2R]	3.63

Variant	protein stability index
RCTASLKLLPHQPRIVEMKKGSNG [E2C]	2.1
RETASTKLLPHQPRIVEMKKGSNG [L6T]	3.63
RETASPKLLPHQPRIVEMKKGSNG [L6P]	4.18
RETASQKLLPHQPRIVEMKKGSNG [L6Q]	3.9
RETASRKLLPHQPRIVEMKKGSNG [L6R]	3.37
RETASHKLLPHQPRIVEMKKGSNG [L6H]	3.56
RETASKKLLPHQPRIVEMKKGSNG [L6K]	3.64
RETASWKLLPHQPRIVEMKKGSNG [L6W]	2.98
RETASEKLLPHQPRIVEMKKGSNG [L6E]	3.95
RETASVKLLPHQPRIVEMKKGSNG [L6V]	3.54
RETASDKLLPHQPRIVEMKKGSNG [L6D]	3.53
RETASIKLLPHQPRIVEMKKGSNG [L6I]	3.48
RETASAKLLPHQPRIVEMKKGSNG [L6A]	3.66
RETASFKLLPHQPRIVEMKKGSNG [L6F]	3.15
RETASSKLLPHQPRIVEMKKGSNG [L6S]	4.01
RETASYKLLPHQPRIVEMKKGSNG [L6Y]	3.56
RETASGKLLPHQPRIVEMKKGSNG [L6G]	3.69
RETASMKLLPHQPRIVEMKKGSNG [L6M]	3.55
RETASNKLLPHQPRIVEMKKGSNG [L6N]	4
RETASLKLLPGQPRIVEMKKGSNG [H11G]	3.38
RETASLKLLPEQPRIVEMKKGSNG [H11E]	3.08
RETASLKLLPAQPRIVEMKKGSNG [H11A]	2.57
RETASLKLLPDQPRIVEMKKGSNG [H11D]	2.35

Variant	protein stability index
RETASLKLLPIQPRIVEMKKGSNG [H11I]	3.59
RETASLKLLPFQPRIVEMKKGSNG [H11F]	3.27
RETASLKLLPKQPRIVEMKKGSNG [H11K]	3.53
RETASLKLLPCQPRIVEMKKGSNG [H11C]	3.47
RETASLKLLPLQPRIVEMKKGSNG [H11L]	3.14
RETASLFLLPHQPRIVEMKKGSNG [K7F]	3.07
RETASLPLLPHQPRIVEMKKGSNG [K7P]	4.67
RETASLILLPHQPRIVEMKKGSNG [K7I]	3.68
RETASLNLLPHQPRIVEMKKGSNG [K7N]	4.86
RETASLGLLPHQPRIVEMKKGSNG [K7G]	4.32
RETASLLLLPHQPRIVEMKKGSNG [K7L]	3.98
RETASLMLLPHQPRIVEMKKGSNG [K7M]	3.9
RETASLCLLPHQPRIVEMKKGSNG [K7C]	3.89
RETASLYLLPHQPRIVEMKKGSNG [K7Y]	3.4
RETASLVLLPHQPRIVEMKKGSNG [K7V]	3.95
RETASLDLLPHQPRIVEMKKGSNG [K7D]	4.97
RETASLALLPHQPRIVEMKKGSNG [K7A]	4.19
RETASLWLLPHQPRIVEMKKGSNG [K7W]	2.72
RETASLTLLPHQPRIVEMKKGSNG [K7T]	4.66
RETASLSLLPHQPRIVEMKKGSNG [K7S]	4.29
RETASLQLLPHQPRIVEMKKGSNG [K7Q]	4.74
RETASLRLLPHQPRIVEMKKGSNG [K7R]	4.05

Variants of: B2
Experiment: as above
Settings: c terminus: a fixed tail appended

Variant	protein stability index
FCADNPSELPPPMERTGGIGDSRT [P24T]	4.12
FCADNPSELPPPMERTGGIGDSRW [P24W]	3.23
FCADNPSELPPPMERTGGIGDSRV [P24V]	4.55
FCADNPSELPPPMERTGGIGDSRS [P24S]	4.73
FCADNPSELPPPMERTGGIGDSRY [P24Y]	3.6
